In patent US20180155451A1 (published 2018):

T1: FcγRIIb extracellular domain with C-terminal His tag (human, UniProt P31994 43-217)
T1 construct: extracellular domain; Expressed in FreeStyle293 cells; analyte in the Biacore assay; also called FcgRIIb; 2b; not shown: His tag at the C terminus
T1 sequence (looked up): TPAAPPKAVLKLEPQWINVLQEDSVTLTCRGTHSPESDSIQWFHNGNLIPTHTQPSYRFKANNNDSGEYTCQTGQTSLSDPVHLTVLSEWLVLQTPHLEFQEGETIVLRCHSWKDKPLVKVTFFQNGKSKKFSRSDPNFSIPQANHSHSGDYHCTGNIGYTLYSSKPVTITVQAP

B1: GpH7-A5/GpH7-B3 variant E269_14T/GpL16-k0 (He Ab) (antibody, human IgG1, kappa)
heavy 1: not shown
heavy 2: not shown
light: DIVMTQSPLSLPVTPGEPASISCQASESLVHSNRNTYLHWYLQKPGQSPQLLIYKVSNRFSGVPDRFSGSGSGTDFTLKISRVEAEDVGVYYCSQNTHVPPTFGQGTKVEIERTVAAPSVFIFPPSDEQLKSGTASVVCLLNNFYPREAKVQWKVDNALQSGNSQESVTEQDSKDSTYSLSSTLTLSKADYEKHKVYACEVTHQGLSSPVTKSFNRGEC
notes: Heterodimerized anti-glypican-3 IgG1; the mutation stands in the GpH7-B3 chain only
B2: GpH7-A5/GpH7-B3 variant Y300_08L/GpL16-k0 (He Ab) (antibody, human IgG1, kappa)
heavy 1: not shown
heavy 2: not shown
light: DIVMTQSPLSLPVTPGEPASISCQASESLVHSNRNTYLHWYLQKPGQSPQLLIYKVSNRFSGVPDRFSGSGSGTDFTLKISRVEAEDVGVYYCSQNTHVPPTFGQGTKVEIERTVAAPSVFIFPPSDEQLKSGTASVVCLLNNFYPREAKVQWKVDNALQSGNSQESVTEQDSKDSTYSLSSTLTLSKADYEKHKVYACEVTHQGLSSPVTKSFNRGEC
notes: as for B1
B3: GpH7-A5/GpH7-B3 variant H268_07I/GpL16-k0 (He Ab) (antibody, human IgG1, kappa)
heavy 1: not shown
heavy 2: not shown
light: DIVMTQSPLSLPVTPGEPASISCQASESLVHSNRNTYLHWYLQKPGQSPQLLIYKVSNRFSGVPDRFSGSGSGTDFTLKISRVEAEDVGVYYCSQNTHVPPTFGQGTKVEIERTVAAPSVFIFPPSDEQLKSGTASVVCLLNNFYPREAKVQWKVDNALQSGNSQESVTEQDSKDSTYSLSSTLTLSKADYEKHKVYACEVTHQGLSSPVTKSFNRGEC
notes: as for B1
B4: GpH7-A5/GpH7-B3 variant H268_14T/GpL16-k0 (He Ab) (antibody, human IgG1, kappa)
heavy 1: not shown
heavy 2: not shown
light: DIVMTQSPLSLPVTPGEPASISCQASESLVHSNRNTYLHWYLQKPGQSPQLLIYKVSNRFSGVPDRFSGSGSGTDFTLKISRVEAEDVGVYYCSQNTHVPPTFGQGTKVEIERTVAAPSVFIFPPSDEQLKSGTASVVCLLNNFYPREAKVQWKVDNALQSGNSQESVTEQDSKDSTYSLSSTLTLSKADYEKHKVYACEVTHQGLSSPVTKSFNRGEC
notes: as for B1
B5: GpH7-A5/GpH7-B3 variant S298_19Q/GpL16-k0 (He Ab) (antibody, human IgG1, kappa)
heavy 1: not shown
heavy 2: not shown
light: DIVMTQSPLSLPVTPGEPASISCQASESLVHSNRNTYLHWYLQKPGQSPQLLIYKVSNRFSGVPDRFSGSGSGTDFTLKISRVEAEDVGVYYCSQNTHVPPTFGQGTKVEIERTVAAPSVFIFPPSDEQLKSGTASVVCLLNNFYPREAKVQWKVDNALQSGNSQESVTEQDSKDSTYSLSSTLTLSKADYEKHKVYACEVTHQGLSSPVTKSFNRGEC
notes: as for B1
B6: GpH7-A5/GpH7-B3 variant Y300_02A/GpL16-k0 (He Ab) (antibody, human IgG1, kappa)
heavy 1: not shown
heavy 2: not shown
light: DIVMTQSPLSLPVTPGEPASISCQASESLVHSNRNTYLHWYLQKPGQSPQLLIYKVSNRFSGVPDRFSGSGSGTDFTLKISRVEAEDVGVYYCSQNTHVPPTFGQGTKVEIERTVAAPSVFIFPPSDEQLKSGTASVVCLLNNFYPREAKVQWKVDNALQSGNSQESVTEQDSKDSTYSLSSTLTLSKADYEKHKVYACEVTHQGLSSPVTKSFNRGEC
notes: as for B1
B7: GpH7-A5/GpH7-B3 variant E269_16H/GpL16-k0 (He Ab) (antibody, human IgG1, kappa)
heavy 1: not shown
heavy 2: not shown
light: DIVMTQSPLSLPVTPGEPASISCQASESLVHSNRNTYLHWYLQKPGQSPQLLIYKVSNRFSGVPDRFSGSGSGTDFTLKISRVEAEDVGVYYCSQNTHVPPTFGQGTKVEIERTVAAPSVFIFPPSDEQLKSGTASVVCLLNNFYPREAKVQWKVDNALQSGNSQESVTEQDSKDSTYSLSSTLTLSKADYEKHKVYACEVTHQGLSSPVTKSFNRGEC
notes: as for B1
B8: GpH7-A5/GpH7-B3 variant S324_02A/GpL16-k0 (He Ab) (antibody, human IgG1, kappa)
heavy 1: not shown
heavy 2: not shown
light: DIVMTQSPLSLPVTPGEPASISCQASESLVHSNRNTYLHWYLQKPGQSPQLLIYKVSNRFSGVPDRFSGSGSGTDFTLKISRVEAEDVGVYYCSQNTHVPPTFGQGTKVEIERTVAAPSVFIFPPSDEQLKSGTASVVCLLNNFYPREAKVQWKVDNALQSGNSQESVTEQDSKDSTYSLSSTLTLSKADYEKHKVYACEVTHQGLSSPVTKSFNRGEC
notes: as for B1
B9: GpH7-A5/GpH7-B3 variant E269_15Y/GpL16-k0 (He Ab) (antibody, human IgG1, kappa)
heavy 1: not shown
heavy 2: not shown
light: DIVMTQSPLSLPVTPGEPASISCQASESLVHSNRNTYLHWYLQKPGQSPQLLIYKVSNRFSGVPDRFSGSGSGTDFTLKISRVEAEDVGVYYCSQNTHVPPTFGQGTKVEIERTVAAPSVFIFPPSDEQLKSGTASVVCLLNNFYPREAKVQWKVDNALQSGNSQESVTEQDSKDSTYSLSSTLTLSKADYEKHKVYACEVTHQGLSSPVTKSFNRGEC
notes: as for B1
B10: GpH7-A5/GpH7-B3 variant S298_20W/GpL16-k0 (He Ab) (antibody, human IgG1, kappa)
heavy 1: not shown
heavy 2: not shown
light: DIVMTQSPLSLPVTPGEPASISCQASESLVHSNRNTYLHWYLQKPGQSPQLLIYKVSNRFSGVPDRFSGSGSGTDFTLKISRVEAEDVGVYYCSQNTHVPPTFGQGTKVEIERTVAAPSVFIFPPSDEQLKSGTASVVCLLNNFYPREAKVQWKVDNALQSGNSQESVTEQDSKDSTYSLSSTLTLSKADYEKHKVYACEVTHQGLSSPVTKSFNRGEC
notes: as for B1

Assays:
[1] = molecular target: T2, FcγRIa extracellular domain with C-terminal His tag (human, UniProt P12314 16-292); assay: SPR (Biacore), antibody captured on antigen-peptide chip, FcγR as analyte; relative binding
T2 construct: extracellular domain; Expressed in FreeStyle293 cells; analyte in the Biacore assay; also called FcgRI; 1a; not shown: His tag at the C terminus
T2 sequence (P12314 16-292): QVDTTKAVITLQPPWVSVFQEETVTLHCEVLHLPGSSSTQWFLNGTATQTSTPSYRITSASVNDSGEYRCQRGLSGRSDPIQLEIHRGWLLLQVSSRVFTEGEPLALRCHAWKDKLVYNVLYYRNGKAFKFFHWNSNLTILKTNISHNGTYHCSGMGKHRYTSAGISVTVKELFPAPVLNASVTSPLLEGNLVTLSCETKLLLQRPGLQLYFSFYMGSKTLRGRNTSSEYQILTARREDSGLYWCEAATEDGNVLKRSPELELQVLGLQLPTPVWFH

[2] = molecular target: T1, FcγRIIb extracellular domain with …; assay: as above

Row | Binder | He/Con_1a [1] | He/Con_2b [2]
1 | B1 | 106 % of GpH7-A5/GpH7-B3/GpL16-k0 (=100) | 50.6 % of GpH7-A5/GpH7-B3/GpL16-k0 (=100)
2 | B2 | 113 % of GpH7-A5/GpH7-B3/GpL16-k0 (=100) | 73.6 % of GpH7-A5/GpH7-B3/GpL16-k0 (=100)
3 | B3 | 108 % of GpH7-A5/GpH7-B3/GpL16-k0 (=100) | 88.9 % of GpH7-A5/GpH7-B3/GpL16-k0 (=100)
4 | B4 | 112 % of GpH7-A5/GpH7-B3/GpL16-k0 (=100) | 86 % of GpH7-A5/GpH7-B3/GpL16-k0 (=100)
5 | B5 | 109 % of GpH7-A5/GpH7-B3/GpL16-k0 (=100) | 73.3 % of GpH7-A5/GpH7-B3/GpL16-k0 (=100)
6 | B6 | 112 % of GpH7-A5/GpH7-B3/GpL16-k0 (=100) | 69.2 % of GpH7-A5/GpH7-B3/GpL16-k0 (=100)
7 | B7 | 106 % of GpH7-A5/GpH7-B3/GpL16-k0 (=100) | 38.5 % of GpH7-A5/GpH7-B3/GpL16-k0 (=100)
8 | B8 | 103 % of GpH7-A5/GpH7-B3/GpL16-k0 (=100) | 78.3 % of GpH7-A5/GpH7-B3/GpL16-k0 (=100)
9 | B9 | 106 % of GpH7-A5/GpH7-B3/GpL16-k0 (=100) | 44.7 % of GpH7-A5/GpH7-B3/GpL16-k0 (=100)
10 | B10 | 104 % of GpH7-A5/GpH7-B3/GpL16-k0 (=100) | 41.1 % of GpH7-A5/GpH7-B3/GpL16-k0 (=100)
